Tests used:
[1] = biological target: GST-p38 MAP kinase (wild-type, TGY), Q16539
[2] = biological target: T1, GST-ATF2 fusion protein (residues 1-505), P15336
T1 chain: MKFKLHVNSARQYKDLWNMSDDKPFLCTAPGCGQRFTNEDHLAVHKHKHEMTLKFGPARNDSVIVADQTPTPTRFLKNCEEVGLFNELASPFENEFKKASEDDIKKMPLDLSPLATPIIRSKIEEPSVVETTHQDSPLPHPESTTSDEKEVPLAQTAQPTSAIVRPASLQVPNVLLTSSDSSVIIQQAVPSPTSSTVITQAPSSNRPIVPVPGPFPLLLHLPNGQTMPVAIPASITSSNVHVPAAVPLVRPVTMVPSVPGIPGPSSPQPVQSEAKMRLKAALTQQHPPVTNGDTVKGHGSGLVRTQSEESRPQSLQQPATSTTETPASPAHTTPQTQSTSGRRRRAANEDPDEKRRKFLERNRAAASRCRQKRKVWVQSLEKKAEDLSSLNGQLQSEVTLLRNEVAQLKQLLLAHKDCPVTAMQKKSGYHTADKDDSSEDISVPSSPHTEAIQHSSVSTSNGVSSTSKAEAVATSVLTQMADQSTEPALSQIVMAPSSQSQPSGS

[3] = biological target: T2, GST-ATF2 fusion protein (residues 40-109), P15336
T2 chain: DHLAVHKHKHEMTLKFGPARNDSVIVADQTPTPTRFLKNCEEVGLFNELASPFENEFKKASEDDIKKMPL

[4] = biological target: GST-ATF2 fusion protein (residues 1-109, activation domain) [GST: P08515]
[5] = biological target: T3, GST-ATF2 fusion protein (residues 1-349), P15336
T3 chain: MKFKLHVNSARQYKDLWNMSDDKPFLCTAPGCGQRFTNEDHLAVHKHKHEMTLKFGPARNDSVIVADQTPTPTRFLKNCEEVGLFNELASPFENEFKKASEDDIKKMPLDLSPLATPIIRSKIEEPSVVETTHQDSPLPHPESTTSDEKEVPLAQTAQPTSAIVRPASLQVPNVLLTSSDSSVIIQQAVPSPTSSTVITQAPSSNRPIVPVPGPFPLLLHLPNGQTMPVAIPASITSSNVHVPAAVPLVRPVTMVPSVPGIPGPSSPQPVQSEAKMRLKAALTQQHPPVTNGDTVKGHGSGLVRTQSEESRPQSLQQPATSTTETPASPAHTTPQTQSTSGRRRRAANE

[6] = biological target: T4, GST-ATF2 fusion protein (residues 60-109), P15336
T4 chain: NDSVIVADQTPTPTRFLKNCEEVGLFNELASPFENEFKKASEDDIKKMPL

[7] = biological target: T5, GST-ATF2 fusion protein (residues 20-109), P15336
T5 chain: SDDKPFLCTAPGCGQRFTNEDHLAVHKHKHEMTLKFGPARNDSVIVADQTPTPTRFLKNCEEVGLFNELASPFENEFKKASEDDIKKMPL

GST-MKK4, P45985 = biological target: T6, GST-MKK4, P45985
T6 chain: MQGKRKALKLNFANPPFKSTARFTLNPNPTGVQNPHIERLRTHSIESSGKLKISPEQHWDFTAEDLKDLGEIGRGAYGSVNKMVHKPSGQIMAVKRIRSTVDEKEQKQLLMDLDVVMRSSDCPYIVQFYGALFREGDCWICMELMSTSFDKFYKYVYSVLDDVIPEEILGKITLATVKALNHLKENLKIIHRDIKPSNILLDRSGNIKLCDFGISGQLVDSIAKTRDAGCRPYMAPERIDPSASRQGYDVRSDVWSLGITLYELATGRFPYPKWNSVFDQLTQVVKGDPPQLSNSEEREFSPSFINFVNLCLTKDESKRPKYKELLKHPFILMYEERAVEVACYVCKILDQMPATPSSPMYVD

[8] = biological target: mutated GST-JNK1 (Ala^183, Phe^185), P45983

GST-p38 MAP kinase (wild-type, TGY), Q16539, sequence (Q16539 whole entry, the tested form may be a part): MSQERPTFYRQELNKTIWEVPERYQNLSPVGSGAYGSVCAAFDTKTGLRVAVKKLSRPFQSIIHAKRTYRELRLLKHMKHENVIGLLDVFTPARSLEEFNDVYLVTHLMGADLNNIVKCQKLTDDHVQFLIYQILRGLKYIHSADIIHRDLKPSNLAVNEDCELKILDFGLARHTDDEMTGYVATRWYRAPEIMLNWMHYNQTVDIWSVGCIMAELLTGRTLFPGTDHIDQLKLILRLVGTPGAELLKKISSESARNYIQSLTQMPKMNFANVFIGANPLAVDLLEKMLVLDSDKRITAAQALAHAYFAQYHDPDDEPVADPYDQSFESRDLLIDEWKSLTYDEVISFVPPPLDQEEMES

B1: MKK6 (protein)
chain: MSQSKGKKRNPGLKIPKEAFEQPQTSSTPPRDLDSKACISIGNQNFEVKADDLEPIMELGRGAYGVVEKMRHVPSGQIMAVKRIRATVNSQEQKRLLMDLDISMRTVDCPFTVTFYGALFREGDVWICMELMDTSLDKFYKQVIDKGQTIPEDILGKIAVSIVKALEHLHSKLSVIHRDVKPSNVLINALGQVKMCDFGISGYLVDSVAKTIDAGCKPYMAPERINPELNQKGYSVKSDIWSLGITMIELAILRFPYDSWGTPFQQLKQVVEEPSPQLPADKFSAEFVDFTSQCLKKNSKERPTYPELMQHPFFTLHESKGTDVASFVKLILGD
[1]
  phosphorylation of the substrate protein (in vitro kinase assay): shown to phosphorylate p38 MAP kinase on Thr^180 and Tyr^182, but not JNK1 or ERK2
  specific activity relative to MKK3: The specific activity of MKK6 was approximately 300-fold greater than that of MKK3
GST-JNK1, P45983
  phosphorylation of the substrate protein (in vitro kinase assay): shown to phosphorylate p38 MAP kinase on Thr^180 and Tyr^182, but not JNK1 or ERK2
GST-ERK2 [GST: P08515]
GST-ERK2 [GST: P08515], sequence (P08515 whole entry, looked up): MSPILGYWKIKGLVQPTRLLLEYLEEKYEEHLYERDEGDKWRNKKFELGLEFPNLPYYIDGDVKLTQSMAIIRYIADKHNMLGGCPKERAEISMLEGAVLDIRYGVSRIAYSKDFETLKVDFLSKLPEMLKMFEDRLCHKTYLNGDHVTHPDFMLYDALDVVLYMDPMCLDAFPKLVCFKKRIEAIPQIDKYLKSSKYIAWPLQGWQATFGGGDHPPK
  phosphorylation of the substrate protein (in vitro kinase assay): shown to phosphorylate p38 MAP kinase on Thr^180 and Tyr^182, but not JNK1 or ERK2

B2: 55 kD JNK2 protein kinase (protein)
chain: MSDSKCDSQFYSVQVADSTFTVLKRYQQLKPIGSGAQGIVCAAFDTVLGINVAVKKLSRPFQNQTHAKRAYRELVLLKCVNHKNIISLLNVFTPQKTLEEFQDVYLVMELMDANLCQVIHMELDHERMSYLLYQMLCGIKHLHSAGIIHRDLKPSNIVVKSDCTLKILDFGLARTACTNFMMTPYVVTRYYRAPEVILGMGYKENVDIWSVGCIMGELVKGCVIFQGTDHIDQWNKVIEQLGTPSAEFMKKLQPTVRNYVENRPKYPGIKFEELFPDWIFPSESERDKIKTSQARDLLSKMLVIDPDKRISVDEALRHPYITVWYDPAEAEAPPPQIYDAQLEEREHAIEEWKELIYKEVMDWEERSKNGVVKDQPSDAAVSSNATPSQSSSINDISSMSTEQTLASDTDSSLDASTGPLEGCR
[2]
  in-gel protein kinase assay with GST-ATF2 (residues 1-505) polymerized in the gel: 46 kD and 55 kD protein kinases that phosphorylate ATF2 in extracts prepared from UV-irradiated cells. The 46 kD and 55 kD protein kinases were identified as JNK1 and JNK2, respectively

B3: Flag epitope-tagged JNK1 (protein)
chain: SRSKRDNNFYSVEIGDSTFTVLKRYQNLKPIGSGAQGIVCAAYDAILERNVAIKKLSRPFQNQTHAKRAYRELVLMKCVNHKNIIGLLNVFTPQKSLEEFQDVYIVMELMDANLCQVIQMELDHERMSYLLYQMLCGIKHLHSAGIIHRDLKPSNIVVKSDCTLKILDFGLARTAGTSFMMTPYVVTRYYRAPEVILGMGYKENVDLWSVGCIMGEMVCHKILFPGRDYIDQWNKVIEQLGTPCPEFMKKLQPTVRTYVENRPKYAGYSFEKLFPDVLFPADSEHNKLKASQARDLLSKMLVIDASKRISVDEALQHPYINVWYDPSEAEAPPPKIPDKQLDEREHTIEEWKELIYKEVMDLEERTKNGVIRGQPSPLAQVQQ
[3]
  phosphorylation of the GST-ATF2 fusion protein (immunocomplex kinase assay): JNK1 phosphorylates GST-ATF2 fusion proteins containing residues 1-505, 1-349, 1-109, 20-109, and 40-109, but not 60-109
[4]
  phosphorylation of GST-ATF2 (residues 1 to 109) (immunocomplex kinase assay, autoradiography): JNK1-transfected cells, but not mock-transfected cells, phosphorylated ATF2. JNK1 phosphorylation of ATF2 was greater in cells exposed to UV radiation
  phosphorylation of the GST-ATF2 fusion protein (immunocomplex kinase assay): JNK1 phosphorylates GST-ATF2 fusion proteins containing residues 1-505, 1-349, 1-109, 20-109, and 40-109, but not 60-109
[5]
  phosphorylation of the GST-ATF2 fusion protein (immunocomplex kinase assay): JNK1 phosphorylates GST-ATF2 fusion proteins containing residues 1-505, 1-349, 1-109, 20-109, and 40-109, but not 60-109
[6]
  phosphorylation of the GST-ATF2 fusion protein (immunocomplex kinase assay): JNK1 phosphorylates GST-ATF2 fusion proteins containing residues 1-505, 1-349, 1-109, 20-109, and 40-109, but not 60-109
[7]
  phosphorylation of the GST-ATF2 fusion protein (immunocomplex kinase assay): JNK1 phosphorylates GST-ATF2 fusion proteins containing residues 1-505, 1-349, 1-109, 20-109, and 40-109, but not 60-109
[2]
  phosphorylation of the GST-ATF2 fusion protein (immunocomplex kinase assay): JNK1 phosphorylates GST-ATF2 fusion proteins containing residues 1-505, 1-349, 1-109, 20-109, and 40-109, but not 60-109

B4: GST-JNK1 (protein)
chain: MSRSKRDNNFYSVEIGDSTFTVLKRYQNLKPIGSGAQGIVCAAYDAILERNVAIKKLSRPFQNQTHAKRAYRELVLMKCVNHKNIIGLLNVFTPQKSLEEFQDVYIVMELMDANLCQVIQMELDHERMSYLLYQMLCGIKHLHSAGIIHRDLKPSNIVVKSDCTLKILDFGLARTAGTSFMMTPYVVTRYYRAPEVILGMGYKENVDLWSVGCIMGEMVCHKILFPGRDYIDQWNKVIEQLGTPCPEFMKKLQPTVRTYVENRPKYAGYSFEKLFPDVLFPADSEHNKLKASQARDLLSKMLVIDASKRISVDEALQHPYINVWYDPSEAEAPPPKIPDKQLDEREHTIEEWKELIYKEVMDLEERTKNGVIRGQPSPLAQVQQ
GST-MKK4, P45985
  phosphorylation of MKK4 (in vitro kinase assay, [γ-32P]ATP): as was MKK4 incubated with JNK1 and p38

B5: GST-MKK4 (protein)
chain: MQGKRKALKLNFANPPFKSTARFTLNPNPTGVQNPHIERLRTHSIESSGKLKISPEQHWDFTAEDLKDLGEIGRGAYGSVNKMVHKPSGQIMAVKRIRSTVDEKEQKQLLMDLDVVMRSSDCPYIVQFYGALFREGDCWICMELMSTSFDKFYKYVYSVLDDVIPEEILGKITLATVKALNHLKENLKIIHRDIKPSNILLDRSGNIKLCDFGISGQLVDSIAKTRDAGCRPYMAPERIDPSASRQGYDVRSDVWSLGITLYELATGRFPYPKWNSVFDQLTQVVKGDPPQLSNSEEREFSPSFINFVNLCLTKDESKRPKYKELLKHPFILMYEERAVEVACYVCKILDQMPATPSSPMYVD
[1]
  phosphorylation of the substrate protein (in vitro kinase assay, [γ-32P]ATP): JNK1 and p38 were phosphorylated
GST-JNK1, P45983
  phosphorylation of ATF2 in a coupled kinase assay (activation of JNK1): ATF2 was phosphorylated in the presence of MKK4 and wild-type JNK1
  phosphorylation of the substrate protein (in vitro kinase assay, [γ-32P]ATP): JNK1 and p38 were phosphorylated
[8]
  phosphorylation of ATF2 in a coupled kinase assay (activation of JNK1): MKK4 incubated with wild-type JNK1, but not mutated JNK1, resulted in increased phosphorylation of ATF2
